Target: the molecule itself
Test: crystal structure; sitting-drop vapor diffusion, 16% PEG 3350, 0.2 M sodium malonate, 0.1 M Bis-Tris propane pH 8.5, 10% ethylene glycol, 1 mM DTT, 18°C; in complex with glucose and G6P; the dimer is in the asymmetric unit

B1: Δ16 variant of the wild-type human hexokinase 2 (enzyme, UniProt P52789 17-917, looked up)
chain: DQVQKVDQYLYHMRLSDETLLEISKRFRKEMEKGLGATTHPTAAVKMLPTFVRSTPDGTEHGEFLALDLGGTNFRVLWVKVTDNGLQKVEMENQIYAIPEDIMRGSGTQLFDHIAECLANFMDKLQIKDKKLPLGFTFSFPCHQTKLDESFLVSWTKGFKSSGVEGRDVVALIRKAIQRRGDFDIDIVAVVNDTVGTMMTCGYDDHNCEIGLIVGTGSNACYMEEMRHIDMVEGDEGRMCINMEWGAFGDDGSLNDIRTEFDQEIDMGSLNPGKQLFEKMISGMYMGELVRLILVKMAKEELLFGGKLSPELLNTGRFETKDISDIEGEKDGIRKAREVLMRLGLDPTQEDCVATHRICQIVSTRSASLCAATLAAVLQRIKENKGEERLRSTIGVDGSVYKKHPHFAKRLHKTVRRLVPGCDVRFLRSEDGSGKGAAMVTAVAYRLADQHRARQKTLEHLQLSHDQLLEVKRRMKVEMERGLSKETHASAPVKMLPTYVCATPDGTEKGDFLALDLGGTNFRVLLVRVRNGKWGGVEMHNKIYAIPQEVMHGTGDELFDHIVQCIADFLEYMGMKGVSLPLGFTFSFPCQQNSLDESILLKWTKGFKASGCEGEDVVTLLKEAIHRREEFDLDVVAVVNDTVGTMMTCGFEDPHCEVGLIVGTGSNACYMEEMRNVELVEGEEGRMCVNMEWGAFGDNGCLDDFRTEFDVAVDELSLNPGKQRFEKMISGMYLGEIVRNILIDFTKRGLLFRGRISERLKTRGIFETKFLSQIESDCLALLQVRAILQHLGLESTCDDSIIVKEVCTVVARRAAQLCGAGMAAVVDRIRENRGLDALKVTVGVDGTLYKLHPHFAKVMHETVKDLAPKCDVSFLQSEDGSGKGAALITAVACRIREAGQR
notes: wild type; Crystallised in complex with glucose and glucose-6-phosphate; also called Δ16-HK2; HK2; source: E. coli, Champion pET SUMO expression system, purified (nickel-chelating resin, Superdex 200)
  binding result: binds

From paper PMC5803496, “The catalytic inactivation of the N-half of human hexokinase 2 and structural and biochemical characterization of its mitochondrial conformation” (Bioscience Reports, 2018)
